T1: human FcγRIIb (CD32b) on CHO-FcγRII cells (human, UniProt P31994 43-310)
T1 construct: whole, on cells
T1 sequence (looked up): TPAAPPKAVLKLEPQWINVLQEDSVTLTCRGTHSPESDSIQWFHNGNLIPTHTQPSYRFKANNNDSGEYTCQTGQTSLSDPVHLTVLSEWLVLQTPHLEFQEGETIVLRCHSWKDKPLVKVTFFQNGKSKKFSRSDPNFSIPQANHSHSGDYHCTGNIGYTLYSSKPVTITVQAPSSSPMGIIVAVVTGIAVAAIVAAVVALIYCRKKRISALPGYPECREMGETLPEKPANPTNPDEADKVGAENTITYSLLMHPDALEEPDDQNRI

B1: chCB6-huIgG1 L328N (antibody, name in EU numbering)
heavy: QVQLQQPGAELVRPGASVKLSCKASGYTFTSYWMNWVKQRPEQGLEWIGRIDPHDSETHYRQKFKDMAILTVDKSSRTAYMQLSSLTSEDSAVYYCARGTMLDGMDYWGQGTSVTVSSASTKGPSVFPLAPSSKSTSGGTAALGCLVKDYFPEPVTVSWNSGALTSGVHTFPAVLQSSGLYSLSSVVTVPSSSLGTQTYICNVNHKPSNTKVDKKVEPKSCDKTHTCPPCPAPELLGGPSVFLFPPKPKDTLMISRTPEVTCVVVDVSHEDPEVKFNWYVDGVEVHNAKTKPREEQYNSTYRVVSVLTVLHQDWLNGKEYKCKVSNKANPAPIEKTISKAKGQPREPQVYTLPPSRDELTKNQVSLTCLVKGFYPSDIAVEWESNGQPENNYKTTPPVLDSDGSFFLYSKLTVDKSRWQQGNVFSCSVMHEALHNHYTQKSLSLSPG
light: QIVLTQSPAIMSASPGEKVTMTCRASSSVSHMHWYQQKSGTSPKRWIYDTSKLASGVPARFSGSGSGTSYSLTISSVEAEDAATYYCQQWSSNPLTFGAGTKLELKRTVAAPSVFIFPPSDEQLKSGTASVVCLLNNFYPREAKVQWKVDNALQSGNSQESVTEQDSKDSTYSLSSTLTLSKADYEKHKVYACEVTHQGLSSPVTKSFNRGEC
notes: copies: 2 + 2
B2: chCB6-huIgG1 T299C (antibody, name in EU numbering)
heavy: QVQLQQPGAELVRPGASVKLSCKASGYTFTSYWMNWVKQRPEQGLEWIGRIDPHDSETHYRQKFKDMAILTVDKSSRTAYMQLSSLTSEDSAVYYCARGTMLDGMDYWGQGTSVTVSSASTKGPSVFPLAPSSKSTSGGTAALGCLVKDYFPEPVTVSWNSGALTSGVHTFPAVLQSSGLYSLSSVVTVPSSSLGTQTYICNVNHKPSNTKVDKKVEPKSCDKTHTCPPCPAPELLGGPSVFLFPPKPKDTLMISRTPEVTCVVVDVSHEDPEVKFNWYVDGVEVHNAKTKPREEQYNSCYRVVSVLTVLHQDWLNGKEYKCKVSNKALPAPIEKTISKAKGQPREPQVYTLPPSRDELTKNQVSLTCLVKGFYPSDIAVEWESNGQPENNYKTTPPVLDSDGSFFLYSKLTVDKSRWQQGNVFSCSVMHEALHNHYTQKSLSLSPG
light: QIVLTQSPAIMSASPGEKVTMTCRASSSVSHMHWYQQKSGTSPKRWIYDTSKLASGVPARFSGSGSGTSYSLTISSVEAEDAATYYCQQWSSNPLTFGAGTKLELKRTVAAPSVFIFPPSDEQLKSGTASVVCLLNNFYPREAKVQWKVDNALQSGNSQESVTEQDSKDSTYSLSSTLTLSKADYEKHKVYACEVTHQGLSSPVTKSFNRGEC
notes: Assay control; copies: 2 + 2
B3: chCB6-huIgG1 Y296A (antibody, name in EU numbering)
heavy: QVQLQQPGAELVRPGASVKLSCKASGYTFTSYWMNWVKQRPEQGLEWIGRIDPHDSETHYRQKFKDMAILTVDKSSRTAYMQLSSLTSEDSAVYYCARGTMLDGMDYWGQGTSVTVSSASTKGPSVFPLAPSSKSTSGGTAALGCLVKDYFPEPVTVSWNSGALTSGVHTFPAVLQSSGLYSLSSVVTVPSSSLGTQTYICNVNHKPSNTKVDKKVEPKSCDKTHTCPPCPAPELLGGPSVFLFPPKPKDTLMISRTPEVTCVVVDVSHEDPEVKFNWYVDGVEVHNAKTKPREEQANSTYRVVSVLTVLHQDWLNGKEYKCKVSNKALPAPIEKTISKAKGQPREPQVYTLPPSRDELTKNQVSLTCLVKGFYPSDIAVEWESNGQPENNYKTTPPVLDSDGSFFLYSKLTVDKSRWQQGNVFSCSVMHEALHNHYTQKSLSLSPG
light: QIVLTQSPAIMSASPGEKVTMTCRASSSVSHMHWYQQKSGTSPKRWIYDTSKLASGVPARFSGSGSGTSYSLTISSVEAEDAATYYCQQWSSNPLTFGAGTKLELKRTVAAPSVFIFPPSDEQLKSGTASVVCLLNNFYPREAKVQWKVDNALQSGNSQESVTEQDSKDSTYSLSSTLTLSKADYEKHKVYACEVTHQGLSSPVTKSFNRGEC
notes: copies: 2 + 2

Key:
[1] = biological target: T1, human FcγRIIb (CD32b) on CHO-FcγRII …; assay: CD32b bridging assay, purified
[2] = biological target: T2, human FcγRI (CD64) on IFNγ-activated U937 cells (human, UniProt P12314 16-374); assay: CD64 bridging assay, purified
T2 construct: whole, on cells; also called FcγR1

[3] = biological target: T3, human FcγRIII (CD16), CD16a (F158), on CD16-transfected Jurkat cells (human, UniProt P08637 17-254); assay: CD16 bridging assay, purified
T3 construct: whole, on cells

human C1q (Sigma C0660) [4] = biological target: T4, human C1q (Sigma C0660) (human, UniProt P02745 23-245; P02746 28-253; P02747 29-245); assay: C1q ELISA on CD2, purified
T4 construct: Bought protein; also called complement protein C1q

[5] = biological target: T3, human FcγRIII (CD16), CD16a (F158), on …; assay: CD16 bridging assay, transient
[6] = biological target: T5, GST-tagged FcγRIII, CD16a (V158) (UniProt P08637 17-208, limits assumed); assay: AlphaScreen competition vs huIgG1 beads, purified
T5 construct: the canonical entry carries F there; Captured by biotinylated anti-GST mAb on streptavidin donor beads; also called GST-FcγRIII; not shown: GST tag
Procedure: The relative binding affinities to FcγRIII (CD16), of the variant antibodies, was determined using an AlphaScreen assay (Amplified Luminescent Proximity Homogeneous Assay, PerkinElmer, MA, USA). Laser excitation of a donor bead excites oxygen, which if in close proximity to an acceptor bead generates a cascade of chemiluminescent events, ultimately leading to fluorescence emission at 520-620 nm. […] The reaction was carried out for one hour in a 25 μl volume and plates were read in the Fusion Alpha reader (PerkinElmer).

human C1q (Sigma C0660) [7] = biological target: T4, human C1q (Sigma C0660); assay: C1q ELISA on CD2, transient
[8] = biological target: T3, human FcγRIII (CD16), CD16a (F158), on …; assay: CD16 bridging assay, transient; remark: listed apart in the source
[9] = biological target: T3, human FcγRIII (CD16), CD16a (F158), on …; assay: summary of Table 5 assays
[10] = biological target: T3, human FcγRIII (CD16), CD16a (F158), on …; assay: CD16 bridging assay, purified; remark: listed apart in the source

T4 sequence (P02745 23-245 limits assumed, chain 1 of 3): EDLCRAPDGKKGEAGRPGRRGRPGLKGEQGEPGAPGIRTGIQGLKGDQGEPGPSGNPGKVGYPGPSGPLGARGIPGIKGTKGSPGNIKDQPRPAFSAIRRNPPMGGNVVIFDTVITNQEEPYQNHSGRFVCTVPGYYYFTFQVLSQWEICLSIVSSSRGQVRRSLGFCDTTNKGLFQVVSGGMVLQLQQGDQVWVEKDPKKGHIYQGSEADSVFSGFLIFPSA
T4 sequence (P02746 28-253 limits assumed, chain 2 of 3): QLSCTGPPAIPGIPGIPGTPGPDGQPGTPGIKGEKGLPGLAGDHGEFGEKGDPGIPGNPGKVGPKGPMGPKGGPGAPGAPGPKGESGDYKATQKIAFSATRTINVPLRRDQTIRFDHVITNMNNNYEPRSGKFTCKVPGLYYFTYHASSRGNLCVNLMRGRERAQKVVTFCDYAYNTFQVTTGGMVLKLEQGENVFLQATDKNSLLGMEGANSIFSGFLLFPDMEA
T4 sequence (P02747 29-245 limits assumed, chain 3 of 3): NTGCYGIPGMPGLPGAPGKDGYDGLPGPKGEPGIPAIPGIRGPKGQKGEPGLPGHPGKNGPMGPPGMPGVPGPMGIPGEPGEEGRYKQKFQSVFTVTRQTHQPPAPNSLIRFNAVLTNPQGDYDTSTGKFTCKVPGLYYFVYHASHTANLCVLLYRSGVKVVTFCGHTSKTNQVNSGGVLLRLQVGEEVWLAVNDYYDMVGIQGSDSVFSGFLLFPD
T3 sequence (P08637 17-254): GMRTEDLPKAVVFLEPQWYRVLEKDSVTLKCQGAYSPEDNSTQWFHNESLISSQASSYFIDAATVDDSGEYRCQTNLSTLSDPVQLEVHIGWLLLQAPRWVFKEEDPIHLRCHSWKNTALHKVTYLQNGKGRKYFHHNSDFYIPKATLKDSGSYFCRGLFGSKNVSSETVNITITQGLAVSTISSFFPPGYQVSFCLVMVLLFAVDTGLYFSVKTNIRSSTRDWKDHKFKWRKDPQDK
T2 sequence (P12314 16-374): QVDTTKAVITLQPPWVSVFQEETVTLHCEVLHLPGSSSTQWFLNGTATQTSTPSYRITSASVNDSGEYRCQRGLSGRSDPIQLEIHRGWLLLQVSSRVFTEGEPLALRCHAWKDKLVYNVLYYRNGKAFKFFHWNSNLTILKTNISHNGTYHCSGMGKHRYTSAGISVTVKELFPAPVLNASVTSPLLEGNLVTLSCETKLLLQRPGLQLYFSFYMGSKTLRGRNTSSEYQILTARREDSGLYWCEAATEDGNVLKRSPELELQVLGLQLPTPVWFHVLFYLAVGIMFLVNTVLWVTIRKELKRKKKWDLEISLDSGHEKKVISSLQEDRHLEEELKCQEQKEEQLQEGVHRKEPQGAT
T5 sequence (P08637 17-208 F176V limits assumed): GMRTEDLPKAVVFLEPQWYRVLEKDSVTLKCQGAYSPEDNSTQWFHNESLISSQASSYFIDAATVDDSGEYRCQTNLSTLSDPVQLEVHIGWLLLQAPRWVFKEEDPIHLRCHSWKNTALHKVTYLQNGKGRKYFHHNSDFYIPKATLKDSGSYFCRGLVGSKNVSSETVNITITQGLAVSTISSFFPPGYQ

Binder	fold decrease in binding vs WT [1]	binding result [2]	fold decrease in binding vs WT [3]	binding result (human C1q (Sigma C0660) [4])	fold decrease in binding vs WT [5]	binding result [1]	binding result [6]	binding result [5]	fold decrease in binding vs WT (human C1q (Sigma C0660) [7])	fold decrease in binding vs WT [8]	fold decrease in binding vs WT (human C1q (Sigma C0660) [4])	fold decrease in binding vs WT [9]	fold decrease in binding vs WT [10]
B1	3 fold	binds	10 fold	no binding	2 fold	–	–	–	–	–	–	–	–
B2	–	no binding	–	no binding	–	no binding	no binding	no binding	–	–	–	–	–
B3	–	–	–	–	–	–	–	–	5 fold	13 fold	3 fold	> 10 fold	5 fold

Reference: US20100203046A1 (Biogen, published 2010)
